Starred links: 1 amine or outer side, 2 acyl side, 3 side chain; linkers in the order of their positions; H or OH if unused. Non-standard residues stand in square brackets, D forms with d. TyrEtNAc = (2S)-3-[4-(2-acetamidoethoxy)phenyl]-2-amino-propanoic acid, CC(=O)NCCOc1ccc(C[C@H](N[*:1])C(=O)[*:2])cc1; dProc4Bn = (2R,4R)-4-benzylpyrrolidine-2-carboxylic acid, O=C([C@H]1C[C@@H](Cc2ccccc2)CN1[*:1])[*:2]; Phe(4-(5-CO2H-2-pyrimidyl)) = N[C@@H](Cc1ccc(-c2ncc(C(=O)O)cn2)cc1)C(=O)O; Phe(4-(4-Ac-piperazinyl)) = CC(=O)N1CCN(c2ccc(C[C@H](N)C(=O)O)cc2)CC1; dPro(4R-(4-pyridylmethyl)) = O=C(O)[C@H]1C[C@@H](Cc2ccncc2)CN1; Trp(βS-Me,4-F) = C[C@@H](c1c[nH]c2cccc(F)c12)[C@H](N)C(=O)O; 3Aminoazetidine3carboxyl = O=C(C1(N[*:1])CN([*:3])C1)[*:2]; Bip(4'-COOH) = N[C@@H](Cc1ccc(-c2ccc(C(=O)O)cc2)cc1)C(=O)O; Ala(1-bicyclo(1.1.1)pentyl) = N[C@@H](CC12CC(C1)C2)C(=O)O; dPro(4R-Bzl(4-F)) = O=C(O)[C@H]1C[C@@H](Cc2ccc(F)cc2)CN1; Ala(pyrimidin-5-yl) = N[C@@H](Cc1cncnc1)C(=O)O; Phe(4-COOH) = N[C@@H](Cc1ccc(C(=O)O)cc1)C(=O)O; Pro(cis-4-F) = O=C(O)[C@@H]1C[C@H](F)CN1; 4Pal = N[C@@H](Cc1ccncc1)C(=O)O; Orn = NCCC[C@H](N)C(=O)O; Dab = NCC[C@H](N)C(=O)O; Aib = CC(C)(N)C(=O)O
Molecular target: Recombinant human IL-1β (BioLegend 579404) (human, UniProt P01584 117-269)
Assay: cell-based or functional assay

Binder	MRC5 IC50 [nM]
cyclo([Bip(4'-COOH)][4Pal][Phe(4-COOH)]G[Pro(cis-4-F)][Trp(βS-Me,4-F)][Aib]EW[Aib][Ala(pyrimidin-5-yl)]QKG[dPro(4R-Bzl(4-F))]) (SMILES C[C@@H](c1c[nH]c2cccc(F)c12)[C@@H]1NC(=O)[C@@H]2C[C@H](F)CN2C(=O)CNC(=O)[C@H](Cc2ccc(C(=O)O)cc2)NC(=O)[C@H](Cc2ccncc2)NC(=O)[C@H](Cc2ccc(-c3ccc(C(=O)O)cc3)cc2)NC(=O)[C@H]2C[C@@H](Cc3ccc(F)cc3)CN2C(=O)CNC(=O)[C@H](CCCCN)NC(=O)[C@H](CCC(N)=O)NC(=O)[C@H](Cc2cncnc2)NC(=O)C(C)(C)NC(=O)[C@H](Cc2c[nH]c3ccccc23)NC(=O)[C@H](CCC(=O)O)NC(=O)C(C)(C)NC1=O) [SEQ ID NO: 9]	0.028
cyclo([Phe(4-(5-CO2H-2-pyrimidyl))][4Pal][Phe(4-COOH)]G[Pro(cis-4-F)][Trp(βS-Me,4-F)][Aib]EW[3Aminoazetidine3carboxyl][4Pal]Q[Dab]G[dPro(4R-Bzl(4-F))]) (SMILES C[C@@H](c1c[nH]c2cccc(F)c12)[C@@H]1NC(=O)[C@@H]2C[C@H](F)CN2C(=O)CNC(=O)[C@H](Cc2ccc(C(=O)O)cc2)NC(=O)[C@H](Cc2ccncc2)NC(=O)[C@H](Cc2ccc(-c3ncc(C(=O)O)cn3)cc2)NC(=O)[C@H]2C[C@@H](Cc3ccc(F)cc3)CN2C(=O)CNC(=O)[C@H](CCN)NC(=O)[C@H](CCC(N)=O)NC(=O)[C@H](Cc2ccncc2)NC(=O)C2(CNC2)NC(=O)[C@H](Cc2c[nH]c3ccccc23)NC(=O)[C@H](CCC(=O)O)NC(=O)C(C)(C)NC1=O) [SEQ ID NO: 81]	0.049
cyclo([Bip(4'-COOH)][4Pal][Phe(4-COOH)]G[Pro(cis-4-F)][Trp(βS-Me,4-F)][Aib]EW[Aib][Ala(pyrimidin-5-yl)]Q[Orn]G[dPro(4R-Bzl(4-F))]) (SMILES C[C@@H](c1c[nH]c2cccc(F)c12)[C@@H]1NC(=O)[C@@H]2C[C@H](F)CN2C(=O)CNC(=O)[C@H](Cc2ccc(C(=O)O)cc2)NC(=O)[C@H](Cc2ccncc2)NC(=O)[C@H](Cc2ccc(-c3ccc(C(=O)O)cc3)cc2)NC(=O)[C@H]2C[C@@H](Cc3ccc(F)cc3)CN2C(=O)CNC(=O)[C@H](CCCN)NC(=O)[C@H](CCC(N)=O)NC(=O)[C@H](Cc2cncnc2)NC(=O)C(C)(C)NC(=O)[C@H](Cc2c[nH]c3ccccc23)NC(=O)[C@H](CCC(=O)O)NC(=O)C(C)(C)NC1=O) [SEQ ID NO: 8]	0.026
cyclo([Phe(4-(5-CO2H-2-pyrimidyl))][Ala(1-bicyclo(1.1.1)pentyl)][Phe(4-COOH)]G[Pro(cis-4-F)][Trp(βS-Me,4-F)][Aib]EW[Aib][Ala(pyrimidin-5-yl)]Q[Dab]G[dPro(4R-Bzl(4-F))]) (SMILES C[C@@H](c1c[nH]c2cccc(F)c12)[C@@H]1NC(=O)[C@@H]2C[C@H](F)CN2C(=O)CNC(=O)[C@H](Cc2ccc(C(=O)O)cc2)NC(=O)[C@H](CC23CC(C2)C3)NC(=O)[C@H](Cc2ccc(-c3ncc(C(=O)O)cn3)cc2)NC(=O)[C@H]2C[C@@H](Cc3ccc(F)cc3)CN2C(=O)CNC(=O)[C@H](CCN)NC(=O)[C@H](CCC(N)=O)NC(=O)[C@H](Cc2cncnc2)NC(=O)C(C)(C)NC(=O)[C@H](Cc2c[nH]c3ccccc23)NC(=O)[C@H](CCC(=O)O)NC(=O)C(C)(C)NC1=O) [SEQ ID NO: 82]	0.054
cyclo([Phe(4-(5-CO2H-2-pyrimidyl))][Ala(1-bicyclo(1.1.1)pentyl)][Phe(4-COOH)]G[Pro(cis-4-F)][Trp(βS-Me,4-F)][Aib]SW[Aib][4Pal]Q[Dab]G[dPro(4R-Bzl(4-F))]) (SMILES C[C@@H](c1c[nH]c2cccc(F)c12)[C@@H]1NC(=O)[C@@H]2C[C@H](F)CN2C(=O)CNC(=O)[C@H](Cc2ccc(C(=O)O)cc2)NC(=O)[C@H](CC23CC(C2)C3)NC(=O)[C@H](Cc2ccc(-c3ncc(C(=O)O)cn3)cc2)NC(=O)[C@H]2C[C@@H](Cc3ccc(F)cc3)CN2C(=O)CNC(=O)[C@H](CCN)NC(=O)[C@H](CCC(N)=O)NC(=O)[C@H](Cc2ccncc2)NC(=O)C(C)(C)NC(=O)[C@H](Cc2c[nH]c3ccccc23)NC(=O)[C@H](CO)NC(=O)C(C)(C)NC1=O) [SEQ ID NO: 84]	0.047
cyclo([Phe(4-(5-CO2H-2-pyrimidyl))][Ala(1-bicyclo(1.1.1)pentyl)][Phe(4-COOH)]G[Pro(cis-4-F)][Trp(βS-Me,4-F)][Aib]SW[Aib][Ala(pyrimidin-5-yl)]Q[Dab]G[dPro(4R-Bzl(4-F))]) (SMILES C[C@@H](c1c[nH]c2cccc(F)c12)[C@@H]1NC(=O)[C@@H]2C[C@H](F)CN2C(=O)CNC(=O)[C@H](Cc2ccc(C(=O)O)cc2)NC(=O)[C@H](CC23CC(C2)C3)NC(=O)[C@H](Cc2ccc(-c3ncc(C(=O)O)cn3)cc2)NC(=O)[C@H]2C[C@@H](Cc3ccc(F)cc3)CN2C(=O)CNC(=O)[C@H](CCN)NC(=O)[C@H](CCC(N)=O)NC(=O)[C@H](Cc2cncnc2)NC(=O)C(C)(C)NC(=O)[C@H](Cc2c[nH]c3ccccc23)NC(=O)[C@H](CO)NC(=O)C(C)(C)NC1=O) [SEQ ID NO: 83]	0.045
cyclo([Phe(4-(5-CO2H-2-pyrimidyl))][Ala(1-bicyclo(1.1.1)pentyl)][Phe(4-COOH)]G[Pro(cis-4-F)][Trp(βS-Me,4-F)][Aib]AW[Aib][Ala(pyrimidin-5-yl)]Q[Dab]G[dPro(4R-(4-pyridylmethyl))]) (SMILES C[C@@H]1NC(=O)C(C)(C)NC(=O)[C@H]([C@@H](C)c2c[nH]c3cccc(F)c23)NC(=O)[C@@H]2C[C@H](F)CN2C(=O)CNC(=O)[C@H](Cc2ccc(C(=O)O)cc2)NC(=O)[C@H](CC23CC(C2)C3)NC(=O)[C@H](Cc2ccc(-c3ncc(C(=O)O)cn3)cc2)NC(=O)[C@H]2C[C@@H](Cc3ccncc3)CN2C(=O)CNC(=O)[C@H](CCN)NC(=O)[C@H](CCC(N)=O)NC(=O)[C@H](Cc2cncnc2)NC(=O)C(C)(C)NC(=O)[C@H](Cc2c[nH]c3ccccc23)NC1=O) [SEQ ID NO: 87]	0.087
cyclo([Phe(4-(5-CO2H-2-pyrimidyl))][4Pal][Phe(4-COOH)]G[Pro(cis-4-F)][Trp(βS-Me,4-F)][Aib]AW[Aib][4Pal]Q[Dab]G[dPro(4R-(4-pyridylmethyl))]) (SMILES C[C@@H]1NC(=O)C(C)(C)NC(=O)[C@H]([C@@H](C)c2c[nH]c3cccc(F)c23)NC(=O)[C@@H]2C[C@H](F)CN2C(=O)CNC(=O)[C@H](Cc2ccc(C(=O)O)cc2)NC(=O)[C@H](Cc2ccncc2)NC(=O)[C@H](Cc2ccc(-c3ncc(C(=O)O)cn3)cc2)NC(=O)[C@H]2C[C@@H](Cc3ccncc3)CN2C(=O)CNC(=O)[C@H](CCN)NC(=O)[C@H](CCC(N)=O)NC(=O)[C@H](Cc2ccncc2)NC(=O)C(C)(C)NC(=O)[C@H](Cc2c[nH]c3ccccc23)NC1=O) [SEQ ID NO: 85]	0.074
cyclo([TyrEtNAc][4Pal][Phe(4-COOH)][Pro(cis-4-F)][Trp(βS-Me,4-F)][Aib]EW[Aib][Ala(pyrimidin-5-yl)]Q[Dab]G[dProc4Bn]) (SMILES CC(=O)NCCOc1ccc(C[C@@H]2NC(=O)[C@H]3C[C@@H](Cc4ccccc4)CN3C(=O)CNC(=O)[C@H](CCN)NC(=O)[C@H](CCC(N)=O)NC(=O)[C@H](Cc3cncnc3)NC(=O)C(C)(C)NC(=O)[C@H](Cc3c[nH]c4ccccc34)NC(=O)[C@H](CCC(=O)O)NC(=O)C(C)(C)NC(=O)[C@H]([C@@H](C)c3c[nH]c4cccc(F)c34)NC(=O)[C@@H]3C[C@H](F)CN3C(=O)[C@H](Cc3ccc(C(=O)O)cc3)NC(=O)[C@H](Cc3ccncc3)NC2=O)cc1) [SEQ ID NO: 80]	0.048
cyclo([Phe(4-(5-CO2H-2-pyrimidyl))][Ala(1-bicyclo(1.1.1)pentyl)][Phe(4-COOH)]G[Pro(cis-4-F)][Trp(βS-Me,4-F)][Aib]AW[Aib][4Pal]Q[Dab]G[dPro(4R-(4-pyridylmethyl))]) (SMILES C[C@@H]1NC(=O)C(C)(C)NC(=O)[C@H]([C@@H](C)c2c[nH]c3cccc(F)c23)NC(=O)[C@@H]2C[C@H](F)CN2C(=O)CNC(=O)[C@H](Cc2ccc(C(=O)O)cc2)NC(=O)[C@H](CC23CC(C2)C3)NC(=O)[C@H](Cc2ccc(-c3ncc(C(=O)O)cn3)cc2)NC(=O)[C@H]2C[C@@H](Cc3ccncc3)CN2C(=O)CNC(=O)[C@H](CCN)NC(=O)[C@H](CCC(N)=O)NC(=O)[C@H](Cc2ccncc2)NC(=O)C(C)(C)NC(=O)[C@H](Cc2c[nH]c3ccccc23)NC1=O) [SEQ ID NO: 88]	0.083
cyclo([Phe(4-(4-Ac-piperazinyl))][Ala(1-bicyclo(1.1.1)pentyl)][Phe(4-COOH)]G[Pro(cis-4-F)][Trp(βS-Me,4-F)][Aib]EW[Aib][4Pal]Q[Dab]G[dPro(4R-Bzl(4-F))]) [SEQ ID NO: 90]	0.064
cyclo([Phe(4-(5-CO2H-2-pyrimidyl))][Ala(1-bicyclo(1.1.1)pentyl)][Phe(4-COOH)]G[Pro(cis-4-F)][Trp(βS-Me,4-F)][Aib]SW[Aib][4Pal]Q[Dab]G[dPro(4R-(4-pyridylmethyl))]) (SMILES C[C@@H](c1c[nH]c2cccc(F)c12)[C@@H]1NC(=O)[C@@H]2C[C@H](F)CN2C(=O)CNC(=O)[C@H](Cc2ccc(C(=O)O)cc2)NC(=O)[C@H](CC23CC(C2)C3)NC(=O)[C@H](Cc2ccc(-c3ncc(C(=O)O)cn3)cc2)NC(=O)[C@H]2C[C@@H](Cc3ccncc3)CN2C(=O)CNC(=O)[C@H](CCN)NC(=O)[C@H](CCC(N)=O)NC(=O)[C@H](Cc2ccncc2)NC(=O)C(C)(C)NC(=O)[C@H](Cc2c[nH]c3ccccc23)NC(=O)[C@H](CO)NC(=O)C(C)(C)NC1=O) [SEQ ID NO: 89]	0.045
cyclo([Phe(4-(5-CO2H-2-pyrimidyl))][Ala(1-bicyclo(1.1.1)pentyl)][Phe(4-COOH)]G[Pro(cis-4-F)][Trp(βS-Me,4-F)][Aib]EW[Aib][4Pal]Q[Dab]G[dPro(4R-(4-pyridylmethyl))]) [SEQ ID NO: 86]	0.075
